Consider 32 molecules from patent US10913773B2, “Bicyclic peptidyl inhibitor of tumor necrosis factor-alpha” (Ohio State Innovation Foundation, priority 2016, dated 2021).

Sequences and labels used below:
B1: C1-10 (peptide)
peptide: RY[dA]KY[dF]G[dK]H[Dap]K(FITC′)-NH2
modifications: bridge (positions not given here) via trimesoyl″; not fully specified (N-terminus, bridges)
B2: C1-34 (peptide)
peptide: [Nle]Y[dS]K[Phe(4-Cl)][dH]G[dK]H[Dap]K(FITC)-NH2
modifications: linker N-4-10 via trimesoyl″
B3: C1-33 (peptide)
peptide: [Nle]Y[dS]K[Phe(4-F)][dH]G[dK]H[Dap]K(FITC)-NH2
modifications: linker N-4-10 via trimesoyl″
B4: C1-22 (peptide)
peptide: [Nle]F[dS]KY[dF]G[dK]H[Dap]K(FITC′)-NH2
modifications: linker (positions not given here) via trimesoyl″; not fully specified (N-terminus, bridges)
B5: C1-32 (peptide)
peptide: [Nle]Y[dS]KY[dQ]G[dK]H[Dap]K(FITC)-NH2
modifications: linker N-4-10 via trimesoyl″
B6: C1-28 (peptide)
peptide: [Nle]Q[dS]KY[dF]G[dK]H[Dap]K(FITC)-NH2
modifications: linker N-4-10 via trimesoyl″
B7: C1-26 (peptide)
peptide: [Nle]H[dS]KY[dF]G[dK]H[Dap]K(FITC)-NH2
modifications: linker N-4-10 via trimesoyl″
B8: C1-31 (peptide)
peptide: [Nle]Y[dS]KY[dL]G[dK]H[Dap]K(FITC)-NH2
modifications: linker N-4-10 via trimesoyl″
B9: C1-27 (peptide)
peptide: [Nle]L[dS]KY[dF]G[dK]H[Dap]K(FITC)-NH2
modifications: linker N-4-10 via trimesoyl″
B10: C1-41 (peptide)
peptide: [Nle]W[dS]KY[dH]G[dK]H[Dap]K(FITC)-NH2
modifications: linker N-4-10 via trimesoyl″
B11: C1-29 (peptide)
peptide: [Nle]Y[dS]KY[dY]G[dK]H[Dap]K(FITC)-NH2
modifications: linker N-4-10 via trimesoyl″
B12: C1-23 (peptide)
peptide: [Nle][Phe(4-F)][dS]KY[dF]G[dK]H[Dap]K(FITC′)-NH2
modifications: bridge (positions not given here) via trimesoyl″; not fully specified (N-terminus, bridges)
B13: C1-39 (peptide)
peptide: [Nle][Phe(4-F)][dS]KY[dH]G[dK]H[Dap]K(FITC)-NH2
modifications: linker (positions not given here) via trimesoyl″; not fully specified (bridges)
B14: C1-37 (peptide)
peptide: [Nle][Phe(4-F)][dS]KY[dQ]G[dK]H[Dap]K(FITC)-NH2
modifications: linker N-4-10 via trimesoyl″
B15: C1-40 (peptide)
peptide: [Nle][Phe(4-Cl)][dS]KY[dH]G[dK]H[Dap]K(FITC)-NH2
modifications: linker N-4-10 via trimesoyl″
B16: C1-24 (peptide)
peptide: [Nle][Phe(4-Cl)][dS]KY[dF]G[dK]H[Dap]K(FITC)-NH2
modifications: linker N-4-10 via trimesoyl″
B17: C1-25 (peptide)
peptide: [Nle][Phe(3,4-F2)][dS]KY[dF]G[dK]H[Dap]K(FITC)-NH2
modifications: linker N-4-10 via trimesoyl″
B18: C1-36 (peptide)
peptide: [Nle]Y[dS]K[2Nal][dH]G[dK]H[Dap]K(FITC)-NH2
modifications: linker N-4-10 via trimesoyl″
B19: C1-19 (peptide)
peptide: [Nle]YSKY[dF]G[dK]H[Dap]K(FITC′)-NH2
modifications: linker (positions not given here) via trimesoyl″; not fully specified (N-terminus, bridges)
notes: L-Ser at position 3
B20: Anticachexin C1, Lys(FITC)-labelled (Table 2) (peptide)
peptide: [Phg]Y[dA]KY[dF]G[dK]H[Dap]K(FITC′)-NH2
modifications: linker (positions not given here) via trimesoyl″; not fully specified (N-terminus, bridges)
B21: C1-12 (peptide)
peptide: [Nle]Y[dN]KY[dF]G[dK]H[Dap]K(FITC′)-NH2
modifications: linker (positions not given here) via trimesoyl″; not fully specified (N-terminus, bridges)
B22: C1-3 (peptide)
peptide: [Abu]Y[dA]KY[dF]G[dK]H[Dap]K(FITC)-NH2
modifications: linker N-4-10 via trimesoyl″
B23: C1-4 (peptide)
peptide: VY[dA]KY[dF]G[dK]H[Dap]K(FITC)-NH2
modifications: linker (positions not given here) via trimesoyl″; not fully specified (bridges)
B24: C1-14 (peptide)
peptide: VY[dT]KY[dF]G[dK]H[Dap]K(FITC′)-NH2
modifications: linker (positions not given here) via trimesoyl″; not fully specified (N-terminus, bridges)
B25: C1-13 (peptide)
peptide: VY[dS]KY[dF]G[dK]H[Dap]K(FITC′)-NH2
modifications: linker (positions not given here) via trimesoyl″; not fully specified (N-terminus, bridges)
B26: C1-16 (peptide)
peptide: LY[dN]KY[dF]G[dK]H[Dap]K(FITC′)-NH2
modifications: linker (positions not given here) via trimesoyl″; not fully specified (N-terminus, bridges)
B27: C1-17 (peptide)
peptide: FY[dN]KY[dF]G[dK]H[Dap]K(FITC′)-NH2
modifications: linker (positions not given here) via trimesoyl″; not fully specified (N-terminus, bridges)
B28: C1-15 (peptide)
peptide: VY[dN]KY[dF]G[dK]H[Dap]K(FITC′)-NH2
modifications: linker (positions not given here) via trimesoyl″; not fully specified (N-terminus, bridges)
B29: C1-2 (peptide)
peptide: AY[dA]KY[dF]G[dK]H[Dap]K(FITC′)-NH2
modifications: linker (positions not given here) via trimesoyl″; not fully specified (N-terminus, bridges)
B30: C1-20 (peptide)
peptide: [Nle]Y[dS][Orn]Y[dF]G[dK]H[Dap]K(FITC′)-NH2
modifications: linker (positions not given here) via trimesoyl″; not fully specified (N-terminus, bridges)
B31: C1-21 (peptide)
peptide: [Nle]Y[dS][Dap]Y[dF]G[dK]H[Dap]K(FITC′)-NH2
modifications: linker (positions not given here) via trimesoyl″; not fully specified (N-terminus, bridges)
B32: Asn-Asn-Asn-Lys(FITC)-labeled anticachexin C1 (peptide)
peptide: [Phg]Y[dA]KY[dF]G[dK]H[Dap]NNNK(FITC′)-NH2
modifications: bridge (positions not given here) via trimesoyl″; not fully specified (N-terminus, bridges); also: feature: K4 labeled with FITC
notes: also called C1-NNNK(FITC); NNNK-tagged anticachexin C1

Positions of bridges follow the written chain, without caps; N, C: chain ends. Non-standard residues stand in square brackets, D forms with d. Primed or numbered codes have the meaning given here. No end group written: not given here. *: point of attachment. FITC = O=C1OC2(c3ccc(O)cc3Oc3cc(O)ccc32)c2ccc(NC(=S)*)cc21; trimesoyl″ = benzene-1,3,5-tricarbonyl scaffold; FITC′ = fluorescein isothiocyanate, on Lys NZ; Phe(3,4-F2) = N[C@@H](Cc1ccc(F)c(F)c1)C(=O)O; Phe(4-Cl) = N[C@@H](Cc1ccc(Cl)cc1)C(=O)O; Phe(4-F) = N[C@@H](Cc1ccc(F)cc1)C(=O)O; 2Nal = N[C@@H](Cc1ccc2ccccc2c1)C(=O)O; Phg = N[C@H](C(=O)O)c1ccccc1; Nle = CCCC[C@H](N)C(=O)O; Orn = NCCC[C@H](N)C(=O)O; Abu = CC[C@H](N)C(=O)O; Dap = NC[C@H](N)C(=O)O

The target in the first experiment is T1, Recombinant TNFα containing an N-terminal 13-aa ybbR tag (human, UniProt P01375 77-233, biotin at the ybbR tag in the ELISA assays).
T1 construct: Expressed in E. coli; Same construct used unlabelled (FA) and biotinylated on NeutrAvidin (ELISA); also called tumor necrosis factor-alpha; human TNFα; not shown: N-terminal 13-aa ybbR tag
T1 sequence (P01375 77-233): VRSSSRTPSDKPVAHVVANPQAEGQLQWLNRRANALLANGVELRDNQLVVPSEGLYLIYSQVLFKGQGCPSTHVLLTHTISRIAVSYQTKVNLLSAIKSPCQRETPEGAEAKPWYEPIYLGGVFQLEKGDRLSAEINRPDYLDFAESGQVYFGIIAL
In words: FA. As for the experimental part:
(§1) The FA values were measured on a Molecular Devices Spectramax M5 spectrofluorimeter, with excitation and emission wavelengths at 485 and 525 nm, respectively. Equilibrium dissociation constants (KD) were determined by plotting the FA values as a function of TNFα concentration and fitting the data to the following equation $$Y = \frac{\left(Amin + \left(Amax \times \frac{Q_b}{Q_f} - Amin\right)\left(\frac{(L+x+K_d) - \sqrt{((L+x+K_d)^2 - 4Lx)}}{2L}\right)\right)}{\left(1 + \left(\frac{Q_b}{Q_f} - 1\right)\left(\frac{(L+x+K_d) - \sqrt{((L+x+K_d)^2 - 4Lx)}}{2L}\right)\right)}$$
(§2) where Y is the measured anisotropy at a given TNFα concentration x; L is the bicyclic peptide concentration; Qb/Qf is the correction fact for dye-protein interaction; Amax is the maximum anisotropy when all the peptides are bound to TNFα, while $Amin$ is the minimum anisotropy. […] The FA values were plotted against the competitor peptide concentration to determine the IC$50$ values.
On to B1, for which the “fold decrease in TNFα binding against C1 (Phg at position-1)” value was not below 5 fold.

The next experiment addresses T1, Recombinant TNFα containing an …. Nature of the experiment: FA, FITC-peptide + TNFα titration. As for the experimental part:
as §1, §2
In the case of B2, the Kd is 1600 nM.

Turning to B3, the Kd was found to be 760 nM.

Turning to B4, the Kd was found to be 1700 nM.

For the molecule B5, the Kd was 1300 nM.

B6: the Kd is 4300 nM.

On to B7, for which the Kd worked out at 2100 nM.

With B8, the Kd was 2500 nM.

As for B9, the Kd worked out at 3700 nM.

Consider B10, for which the Kd is 430 nM.

For B11, the Kd was determined as 2000 nM.

Regarding B12, the Kd came to 1200 nM.

In the case of B13, the dissociation constant (Kd) worked out at 1700 nM.

Turning to B14, the Kd came out at 1300 nM.

Consider B15, for which the Kd came out at 4100 nM.

Turning to B16, the Kd came to 4800 nM.

Take B17: the Kd is 5400 nM.

Regarding B18, the Kd worked out at 1300 nM.

The target is the same in the next experiment. In words: FA, FITC-peptide + TNFα titration. This is another data set of the same source. The protocol: as §1, §2
In the case of B19, the Kd is 6800 nM.

Turning to B20, the Kd stood at 1400 nM.

For B21, the Kd is 1400 nM.

Consider B22, for which the Kd turned out to be 2000 nM.

On to B23, for which the Kd turned out to be 1700 nM.

As for B24, the Kd came out at 2900 nM.

As for B25, the Kd worked out at 2400 nM.

Take B26: the Kd worked out at 2700 nM.

For B27, the Kd turned out to be 2200 nM.

Consider B28, for which the Kd is 3200 nM.

Regarding B29, the Kd was found to be 1800 nM.

With B30, the Kd stood at 3500 nM.

On to B31, for which the Kd amounted to 5900 nM.

In the case of B32, the Kd worked out at 800 nM.

What is called Kd is the concentration at which binding is half-saturated.
